Target: recombinant human interferon beta-1a (human), P01574
Assay: SPR; IFN-β immobilised on ProteOn GLH chip by amine coupling; Ca^2+-loaded S100 as analyte (0.25–5 µM S100A1, 0.5–5 µM S100A4/A6, 5 µM other S100); 25 °C; 10 mM HEPES, 150 mM NaCl, 0.01% TWEEN 20, pH 7.4, 1 mM CaCl2; heterogeneous ligand model
Conditions: remark: other sources report otherwise

Kd: > 10 µM
B1: recombinant human S100B, P04271 1-92 (natural protein)
chain: MSELEKAMVALIDVFHQYSGREGDKHKLKKSELKELINNELSHFLEEIKEQEVVDKVMETLDNDGDGECDFQEFMAFVAMVTTACHEFFEHE

Reference: article PMC7764042
